Experimental data: patent US20230331872A1 (CYTOIMMUNE THERAPEUTICS, published 2023)

T1: Recombinant Human NKG2D, amino acid Phe78-Val216 (Accession #P26718) (Biolegends, #781908) (human, UniProt P26718 78-216)
T1 construct: range 78-216; Bought reagent; also called NKG2D-fusion protein; CD314
T1 sequence (looked up): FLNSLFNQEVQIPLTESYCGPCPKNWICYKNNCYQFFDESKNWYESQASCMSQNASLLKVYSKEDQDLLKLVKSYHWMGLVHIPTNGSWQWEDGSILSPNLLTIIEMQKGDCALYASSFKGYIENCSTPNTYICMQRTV


Target: T1, Recombinant Human NKG2D, amino acid …
Test: home developed BiKE detection ELISA with NKG2D-fusion protein coated plate, 72 h serum-free NK cell supernatant
Description: An unique ELISA assay was developed for detecting the concentration of full human Source Scfv-anti NKG2D and GPRCSD. Firstly, the Nunc MaxiSorp™ flat-bottom plate (Invitrogen™, 44-2404-21) was coated with 100 ng/well of Recombinant Human NKG2D, amino acid Phe78-Va1216 (Accession #P26718) (Biolegends, #781908) dissolved in 100 μl of DPBS (Gibco, 14190) at 4 degree overnight. After washing with 1x DPBS buffer with final 0.05% Tween 20 and blocking with 1% BSA in 1x DPBS buffer with final 0.05% Tween 20, 100 μl of samples and standard in blocking buffer were added to each well. The standard used in this assay was a human anti human NKG2D antibody, CD314 (NKG2D)-PE, human, Cat: 130-111-645, recombinant human IgG1, Miltenyi Biotec GmbH (0.25 mg/ml). For detection, a Biotinylated Goat anti-Human IgG (H+L) Cross-Adsorbed Secondary Antibody and HRP-Conjugated Streptavidin (Thermo Scientific™, N100), as well as 1-Step™ Ultra TMB-ELISA Substrate Solution, (Bio-Rad #34029). Stop buffer used was 1 M H₃PO₄.
0.5-1×10⁶ transduced NK cells (FIG. 39) were seeded and cultured in serum free media for 72 hours. Supernatant was subsequently collected, centrifuged, and immediately added to IL-15 pre-coated ELISA plate (R&D Systems S1500) and home developed BiKE detection ELISA with NKG2D-fusion protein coated plate. […] Data present here was as average concentration from four independent donors as mean±SD.

Binder	binding result
NKG2D-GPRC5D BiKE (NG2-BiKE) secreted from NK cells transduced with P62: NG2-BiKE BCMA-CAR--SIL-15-RQR8 (bispecific antibody, human IgG4 S228P, F234A L235A, N297Q, also called IL2 SP BiKE; NKG2D-GPRC5D BiKE-BCMA CAR-SIL-15-RQR8-P62) QVQLVESGGGLVKPGGSLRLSCAASGFTFSSYGMHWVRQAPGKGLEWVAFIRYDGSNKYYADSVKGRFTISRDNSKNTLYLQMNSLRAEDTAVYYCAKDRGLGDGTYFDYWGQGTTVTVSSGGGGSGGGGSGGGGSQSALTQPASVSGSPGQSITISCSGSSSNIGNNAVNWYQQLPGKAPKLLIYYDDLLPSGVSDRFSGSKSGTSAFLAISGLQSEDEADYYCAAWDDSLNGPVFGGGTKLTVLPSGQAGAAASESLFVSNHAYQVQLVQSGAEVKKPGASVKVSCKASGYSFTGYTMNWVRQAPGQGLEWMGLINPYNSDTNYAQKLQGRVTMTTDTSTSTAYMELRSLRSDDTAVYYCARVALRVALDYWGQGTLVTVSSGGGGSGGGGSGGGGSDIQMTQSPSSLSASVGDRVTITCKASQNVATHVGWYQQKPGKAPKRLIYSASYRYSGVPSRFSGSGSGTEFTLTISNLQPEDFATYYCQQYNRYPYTFGQGTKLEIKESKYGPPCPPCPAPEAAGGPSVFLFPPKPKDTLMISRTPEVTCVVVDVSQEDPEVQFNWYVDGVEVHNAKTKPREEQFQSTYRVVSVLTVLHQDWLNGKEYKCKVSNKGLPSSIEKTISKAKGQPREPQVYTLPPSQEEMTKNQVSLTCLVKGFYPSDIAVEWESNGQPENNYKTTPPVLDSDGSFFLYSRLTVDKSRWQEGNVFSCSVMHEALHNHYTQKSLSLSLGK	binds
GPRC5D-NKG2D BiKE (GN1-BiKE) secreted from NK cells transduced with P61: GN1-BiKE BCMA-CAR--SIL-15-RQR8 (bispecific antibody, human IgG4 S228P, F234A L235A, N297Q, also called IL2 SP BiKE; GPRC5D-NKG2D BiKE-BCMA CAR-SIL-15-RQR8-P61) DIQMTQSPSSLSASVGDRVTITCKASQNVATHVGWYQQKPGKAPKRLIYSASYRYSGVPSRFSGSGSGTEFTLTISNLQPEDFATYYCQQYNRYPYTFGQGTKLEIKGGGGSGGGGSGGGGSQVQLVQSGAEVKKPGASVKVSCKASGYSFTGYTMNWVRQAPGQGLEWMGLINPYNSDTNYAQKLQGRVTMTTDTSTSTAYMELRSLRSDDTAVYYCARVALRVALDYWGQGTLVTVSSPSGQAGAAASESLFVSNHAYQSALTQPASVSGSPGQSITISCSGSSSNIGNNAVNWYQQLPGKAPKLLIYYDDLLPSGVSDRFSGSKSGTSAFLAISGLQSEDEADYYCAAWDDSLNGPVFGGGTKLTVLGGGGSGGGGSGGGGSQVQLVESGGGLVKPGGSLRLSCAASGFTFSSYGMHWVRQAPGKGLEWVAFIRYDGSNKYYADSVKGRFTISRDNSKNTLYLQMNSLRAEDTAVYYCAKDRGLGDGTYFDYWGQGTTVTVSSESKYGPPCPPCPAPEAAGGPSVFLFPPKPKDTLMISRTPEVTCVVVDVSQEDPEVQFNWYVDGVEVHNAKTKPREEQFQSTYRVVSVLTVLHQDWLNGKEYKCKVSNKGLPSSIEKTISKAKGQPREPQVYTLPPSQEEMTKNQVSLTCLVKGFYPSDIAVEWESNGQPENNYKTTPPVLDSDGSFFLYSRLTVDKSRWQEGNVFSCSVMHEALHNHYTQKSLSLSLGK	binds
